# Data reported in paper doi:10.1101/2020.06.17.153486 (bioRxiv, 2020).
# Molecular target: SARS-CoV-2 spike trimer (S trimer), soluble ectodomain (SARS-CoV-2, Wuhan-Hu-1 type, stabilised)
# Test: cryo-EM structure
binder,measurement,value
"2-4 Fab (Fab, V domains shown) VH: QVQLVQSGAEVKKPGASVKVSCKASGYTFTGYYMHWVRQAPGQGLEWMGWINPNSGGTNYTQMFQGRVTMTRDTSISTAYMEVSRLRSDDTAVYYCARDRSWAVVYYYMDVWGKGTTVTVSS VL: QSALTQPPSASGSPGQSVTISCTGTSSDVGGYNYVSWYQQHPGKAPKLMIYEVSKRPSGVPDRFSGSKSGNTASLTVSGLQAEDEADYYCSSYAGSNNLVFGGGTKLTVL",stoichiometry N,3 Fab per trimer
